Measurements from US6861508B2, “Transcriptional intermediary factor-2” (Institut National de la Sante et de la Recherche Medicale, priority 1996, dated 2005).
Substitutions are numbered along the chain they refer to.

T1: (His)6-TIF2.1, E. coli-expressed purified recombinant TIF2.1 (human, UniProt Q15596 624-1287)
T1 construct: also called His-tagged TIF2.1; purified TIF2.1 protein; not shown: (His)6 tag of pET15b
T1 sequence: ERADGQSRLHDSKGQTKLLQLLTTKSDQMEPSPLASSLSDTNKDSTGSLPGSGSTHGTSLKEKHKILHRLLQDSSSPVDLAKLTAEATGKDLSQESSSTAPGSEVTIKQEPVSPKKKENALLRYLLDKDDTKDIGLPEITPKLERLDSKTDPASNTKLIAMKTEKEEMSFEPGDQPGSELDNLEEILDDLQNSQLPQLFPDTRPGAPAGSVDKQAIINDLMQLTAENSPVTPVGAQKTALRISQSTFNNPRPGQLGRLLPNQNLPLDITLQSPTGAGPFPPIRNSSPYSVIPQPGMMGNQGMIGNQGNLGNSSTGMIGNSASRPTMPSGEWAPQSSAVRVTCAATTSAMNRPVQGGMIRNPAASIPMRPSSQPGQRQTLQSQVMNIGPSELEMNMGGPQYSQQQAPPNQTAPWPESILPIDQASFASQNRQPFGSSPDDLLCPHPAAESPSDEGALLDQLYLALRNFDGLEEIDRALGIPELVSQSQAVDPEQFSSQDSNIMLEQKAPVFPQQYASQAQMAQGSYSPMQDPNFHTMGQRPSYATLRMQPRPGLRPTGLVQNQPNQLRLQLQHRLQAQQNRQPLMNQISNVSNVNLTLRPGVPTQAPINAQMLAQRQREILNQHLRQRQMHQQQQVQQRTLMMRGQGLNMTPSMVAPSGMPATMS

T2: TIF2.1 (TIF2 amino acids 624 to 1287) (human, UniProt Q15596 624-1287)
T2 construct: Form without a stated tag: expression-library clone, expressed in Cos cells from pSG5, or in-vitro-translated; also called cytoplasmic TIF2.1 polypeptide
T2 sequence: T1 sequence

T3: GST-hRARα(DEF) (pGEX2T-hRARα(DEF), amino acids 153-462) (human, UniProt P10276 153-462)
T3 construct: range 153-462; Bacterially produced; also called GST-RAR; GST-RARα(DEF); not shown: glutathione-S-transferase (GST) of pGEX2T (Pharmacia)
T3 sequence (looked up): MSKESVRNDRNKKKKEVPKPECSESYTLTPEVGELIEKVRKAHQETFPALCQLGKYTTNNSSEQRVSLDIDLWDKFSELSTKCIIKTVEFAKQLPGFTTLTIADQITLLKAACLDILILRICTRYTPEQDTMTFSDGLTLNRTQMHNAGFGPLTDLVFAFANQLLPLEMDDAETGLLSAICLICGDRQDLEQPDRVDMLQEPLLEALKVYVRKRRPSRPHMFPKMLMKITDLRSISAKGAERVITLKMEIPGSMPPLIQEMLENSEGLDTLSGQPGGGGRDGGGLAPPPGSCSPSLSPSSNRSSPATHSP

B1: TIF2.15: TIF2.13 with removal of 26 C-terminal amino acid residues (protein, UniProt Q15596 1011-1096, looked up, fragment)
chain: PSELEMNMGGPQYSQQQAPPNQTAPWPESILPIDQASFASQNRQPFGSSPDDLLCPHPAAESPSDEGALLDQLYLALRNFDGLEEI
B2: TIF2.34: TIF2.5 C-terminally truncated to Pro775 (protein)
chain: MKLLSSIEQACDICRLKKLKCSKEKPKCAKCLKNNWECRYSPKTKRSPLTRAHLTEVESRLERLEQLFLLIFPREDLDMILKMDSLQDIKALLTGLFVQDNVNKDAVTDRLASVETDMPLTLRQHRISATSSSEESSNKGQRQLTVSERADGQSRLHDSKGQTKLLQLLTTKSDQMEPSPLASSLSDTNKDSTGSLPGSGSTHGTSLKEKHKILHRLLQDSSSPVDLAKLTAEATGKDLSQESSSTAPGSEVTIKQEPVSPKKKENALLRYLLDKDDTKDIGLPEITPKLERLDSKTDP
B3: GST-hTAFII18 (printed hTAFn18) (other, human, UniProt Q15543 1-124, looked up)
chain: MADEEEDPTFEEENEEIGGGAEGGQGKRKRLFSKELRCMMYGFGDDQNPYTESVDILEDLVIEFITEMTHKAMSIGRQGRVQVEDIVFLIRKDPRKFARVKDLLTMNEELKRARKAFDEANYGS
notes: not shown: glutathione-S-transferase (GST)
B4: TIF2.18: TIF2.13 with removal of 20 N-terminal amino acid residues (protein, UniProt Q15596 1031-1122, looked up, fragment)
chain: NQTAPWPESILPIDQASFASQNRQPFGSSPDDLLCPHPAAESPSDEGALLDQLYLALRNFDGLEEIDRALGIPELVSQSQAVDPEQFSSQDS
B5: GST-mRXRα(DE) (pGEX2T-mRXRα(DE), amino acids 205-467) (receptor, mouse, UniProt P28700 205-467, looked up)
chain: MKREAVQEERQRGKDRNENEVESTSSANEDMPVEKILEAELAVEPKTETYVEANMGLNPSSPNDPVTNICQAADKQLFTLVEWAKRIPHFSELPLDDQVILLRAGWNELLIASFSHRSIAVKDGILLATGLHVHRNSAHSAGVGAIFDRVLTELVSKMRDMQMDKTELGCLRAIVLFNPDSKGLSNPAEVEALREKVYASLEAYCKHKYPEQPGRFAKLLLRLPALRSIGLKCLEHLFFFKLIGDTPIDTFLMEMLEAPHQAT
notes: range 205-467; also called GST-RXR; GST-RXRα(DE); not shown: glutathione-S-transferase (GST) of pGEX2T (Pharmacia)
B6: TIF2.1 m23 (LL→AA in NR box motifs II and III) (other)
chain: T1 sequence with L70A, L71A, L125A, L126A
notes: also called single intact NR box I
B7: TIF2.1 m13 (LL→AA in NR box motifs I and III) (other)
chain: T1 sequence with L21A, L22A, L125A, L126A
notes: also called single intact NR box II
B8: TIF2.1 m12 (LL→AA in NR box motifs I and II) (other)
chain: T1 sequence with L21A, L22A, L70A, L71A
notes: also called single intact NR box III

How the values were obtained:
GAL4 reporter = test: GAL4 DBD-TIF2 fusion CAT reporter transactivation assay; assay type: cell-based; details: Cos-1 and/or HeLa cells
Procedure: (a) HeLa cells were cotransfected with 1 μg (17m)5-βG-CAT and 10 μg GAL(1-147) or 1,3 and 10 μg GAL(1-147)-TIF2.1, respectively.
(c) Analysis of the transcriptional activity of GAL-TIF2 fusion proteins. Cos-1 and HeLa cells were transfected with 3 lag of plasmids expressing different regions of TIF2 fised to the DNA-binding domain of the yeast transcription factor GALA together with 1 μg of the (7m)5-G-CAT reporterplasmid. CAT assays were performed as described (Bocquel, M. T. et al., Nucl Acids Res. 17:2581-2595 (1989)). Quantitative data on CAT reporter expression were obtained either by phosphoimager analysis (BAS2000, Fuji) of ^14C-labeled CAT reaction products separated by thin-layer chromatography, or using the CAT ELISA Kit (Boehringer Mannheim). In all cases, CAT activities were normalized to the β-galactosidase concentrations resulting from cotransfection of 1 μg of pCMVPGal (gift from T. Lerouge) as internal control. Fold inductions above the GAL4 DBD value are indicated. The mean and standard deviation of at least three experiments are shown. A representative Western blot, illustrating the expression levels of the GAL4-TIF2 fusion proteins, expressed from 10 μg of the corresponding expression vectors, is shown on the left.
(b) Transcriptional activation of TIF2 AF-1 mutants. Cos-1 and HeLa cells were cotransfected with 3 μg of plasmids expressing different mutants of the TIF2 AF-1 fused to the DNA-binding domain of the yeast transcription factor GAL4 together with 1 μg of the (17m)5-G-CAT reporter plasmid. Fold inductions above the activation seen with the GAL4 DBD alone are indicated. The values represent the mean of at least three experiments.
(a) Transcriptional activation by TIF2.13 and TIF2.13 mutants. Cos-1 and HeLa cells were cotransfected with 3 μg of plasmids expressing the TIF2.13 region and the indicated TIF2.13 mutants fused to the DNA-binding domain of the yeast transcription factor GALA together with 1 μg of the (17m)5-G-CAT reporter plasmid. Fold inductions above the GAL4 DBD 1-fold value are indicated. The mean and standard deviation obtained from at least four experiments are shown. The expression levels of the GAL4-TIF2.13 fusion proteins were confirmed by western blotting (data not shown).
Transient transfections of HeLa and Cos-1 cells were performed as described (Gronemeyer et al., (1987); Bocquel, M. T. et al., Nucl. Acids Res. 17:2581-2595 (1989)).

ER, RARα and RXRα LBDs = test: GST pull-down of TIF2 polypeptides with NR LBDs; assay type: binding; details: in vitro, with or without 10^−6 M ligand
Procedure: (b) Mapping of the nuclear receptor-interacting domain of TIF2.
(c-d) Interaction of TIF2 NID mutants with NRs in vitro. […] For quantification of point mutant interactions, see below.
(e-f) Effect of TIF2 NID point mutations on stimulation of NR AF-2 activity. Cos-1 cells were cotransfected with 1 μg of the (17m)5-TATA-CAT reporter, 0.2 μg of GAL-hERα(EF) or GAL-mRXRα(DE), and 2.5 μg of the TIF2.1 wildtype or mutated fragments, as indicated. […] Each bar represents the mean value obtained from at least three (interaction) or at least four (transactivation) experiments, respectively; standard deviations are indicated. Note that the absolute values for TIF2.1 wildtype activity varied by ±16% when cotransfected with GAL-hERα(EF) and by ±34% when cotransfected with GAL-mRXRα(DE). In the in-vitro-interaction assays, the affinity of the TIF2.1 wildtype standard varied by less than ±25%. Expression levels of TIF2 mutants in the cells were verified by Western blot (not shown) with mouse monoclonal antibody 3Ti3F1, which is directed against an epitope outside the mutated area.
To further delineate the TIF2 NR interaction domain (NID), we studied the interaction between a series of TIF2 deletion mutants and the ER or RARα LBDs, using GST-fusion protein-based in vitro assays. In both cases, an NWD was mapped to the central region of TIF2 (amino acids 624-869 in mutant TIF2.5; see FIGS. 7a and b). No additional NWD could be identified in the N- or C-termini of TIF2 (FIGS. 7a and b; mutants TIF2.0, TIF2.2 and TIF2.7). Note that, in contrast, SRC-1, a paralogue of TIF2, apparently harbours two distinct non-contiguous NIDs located in the central and C-terminal regions (Onate, S. A. et al., Science 270:1354-1357 (1995), Yao, T. P. et al., Proc. Natl. Acad. Sci. USA 93:10626-10631 (1996); Zhu, Y. et al., Gene Epression 6:185-195 (1996)).

[1] = biological target: T1, (His)6-TIF2.1, E. coli-expressed …; test: GST interaction assay (not shown)
[2] = biological target: T2, TIF2.1 (TIF2 amino acids 624 to 1287); test: Far-Western blot with 32P-labelled NR LBD probe, agonist present
[3] = biological target: B5; test: in vitro GST interaction of TIF2.1 point mutants, with ligand, relative to TIF2.1 wild type
[4] = biological target: T3, GST-hRARα(DEF) (pGEX2T-hRARα(DEF), …); test: as above

times less efficient in NR interaction than the wild-type TIF2 [3] | times less efficient in NR interaction than the wild-type TIF2 [4] | Molecule | further results
– | – | B1 | transcriptional activation of GAL4 reporter by GAL4 DBD fusion (GAL4 reporter): reduced transcriptional activity only weakly
– | – | B2 | binding to NRs (ER, RARα LBDs) (ER, RARα and RXRα LBDs): interacted with ER and RARα LBDs in a ligand-dependent manner
– | – | B3 | binding result [1]: no binding
– | – | B4 | transcriptional activation of GAL4 reporter by GAL4 DBD fusion (GAL4 reporter): reduced transcriptional activity only weakly
– | – | B5 | binding result [2]: binds
20 times less efficient than wild type | 20 times less efficient than wild type | B6 | –
5 times less efficient than wild type | 5 times less efficient than wild type | B7 | –
20 times less efficient than wild type | 20 times less efficient than wild type | B8 | –
